Here are results for three molecules from patent US20050153395A1 (CHILDREN S HOSPITAL, published 2005).

Residue numbers refer to the chain shown, from its start. Numbers in names are those of the source.

For this assay, the target named is integrin αvβ3 on activated rat hepatic stellate cells (HSC) (rat, UniProt Q8R2H2 26-787). The assay is described as follows: cell-based or functional assay.
Sequence of integrin αvβ3 on activated rat hepatic stellate cells (HSC) (Q8R2H2 26-787): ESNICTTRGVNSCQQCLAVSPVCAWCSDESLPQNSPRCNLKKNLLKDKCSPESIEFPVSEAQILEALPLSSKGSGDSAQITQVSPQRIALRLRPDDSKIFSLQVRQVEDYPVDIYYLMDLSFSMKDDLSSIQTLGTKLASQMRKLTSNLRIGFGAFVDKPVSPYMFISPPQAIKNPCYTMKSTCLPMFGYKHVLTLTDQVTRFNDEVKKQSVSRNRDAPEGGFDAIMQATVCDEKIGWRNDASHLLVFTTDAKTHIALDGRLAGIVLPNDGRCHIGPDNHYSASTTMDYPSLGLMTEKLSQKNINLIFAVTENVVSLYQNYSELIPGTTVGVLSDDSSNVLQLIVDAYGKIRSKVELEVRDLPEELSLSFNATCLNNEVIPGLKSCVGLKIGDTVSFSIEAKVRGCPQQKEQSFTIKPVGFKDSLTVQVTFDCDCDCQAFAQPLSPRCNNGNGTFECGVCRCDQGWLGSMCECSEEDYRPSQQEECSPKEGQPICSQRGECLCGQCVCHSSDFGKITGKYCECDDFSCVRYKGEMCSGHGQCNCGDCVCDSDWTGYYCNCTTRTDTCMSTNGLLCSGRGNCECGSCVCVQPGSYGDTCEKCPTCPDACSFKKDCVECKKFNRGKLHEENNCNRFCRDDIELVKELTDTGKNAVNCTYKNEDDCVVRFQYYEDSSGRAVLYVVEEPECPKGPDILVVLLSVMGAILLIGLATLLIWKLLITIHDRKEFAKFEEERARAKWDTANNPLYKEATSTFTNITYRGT

B1: CTGF4 mutant M1 (I257A, R258A, T259A, P260A) (ligand)
chain: EENIKKGKKCAAAAKISKPIKFELSGCTSMKTYRAKFCGVCTDGRCCTPHRTTTLPVEFKCPDGEVMKKNMMFIKTCACHYNCPGDNDIFESLYYRKMYGDMA
Take B1: the “HSC adhesion, level relative to wild-type CTGF4” value turned out to be 33%.

B2: CTGF4 mutant M3 (P265A, I266A, K267A, F268A) (ligand)
chain: B1 chain with A11I, A12R, A13T, A14P, P19A, I20A, K21A, F22A
With B2, the “HSC adhesion, level relative to wild-type CTGF4” value amounted to 80%.

B3: CTGF4 mutant M4 (E269A, L270A, S271A, G272A) (ligand)
chain: B1 chain with A11I, A12R, A13T, A14P, E23A, L24A, S25A, G26A
Turning to B3, the “HSC adhesion, level relative to wild-type CTGF4” value came out at 46%.
